System: protein phosphatase 2A (PP2A), endogenous, in N27 cell lysate

recombinant pure PKCδ
32P-kinase assay: phosphorylation of immunoprecipitated PP2A: PP2A immunoprecipitated from N27 cells was effectively phosphorylated by PKCδ immunoprecipitates as well as by recombinant pure PKCδ
